Assay results taken from patent US20200216494A1 (ROYAL MELBOURNE INSTITUTE OF TECHNOLOGY, published 2020).

Biological target: T1, NOX2 (catalytic subunit of NOX2 NADPH oxidase) (mouse, UniProt Q61093 2-570)
T1 construct: whole, on cells; Endogenous protein in mouse alveolar macrophages, BMDMs and RAW264.7 cells; also called gp91phox; CYBB
T1 sequence (looked up): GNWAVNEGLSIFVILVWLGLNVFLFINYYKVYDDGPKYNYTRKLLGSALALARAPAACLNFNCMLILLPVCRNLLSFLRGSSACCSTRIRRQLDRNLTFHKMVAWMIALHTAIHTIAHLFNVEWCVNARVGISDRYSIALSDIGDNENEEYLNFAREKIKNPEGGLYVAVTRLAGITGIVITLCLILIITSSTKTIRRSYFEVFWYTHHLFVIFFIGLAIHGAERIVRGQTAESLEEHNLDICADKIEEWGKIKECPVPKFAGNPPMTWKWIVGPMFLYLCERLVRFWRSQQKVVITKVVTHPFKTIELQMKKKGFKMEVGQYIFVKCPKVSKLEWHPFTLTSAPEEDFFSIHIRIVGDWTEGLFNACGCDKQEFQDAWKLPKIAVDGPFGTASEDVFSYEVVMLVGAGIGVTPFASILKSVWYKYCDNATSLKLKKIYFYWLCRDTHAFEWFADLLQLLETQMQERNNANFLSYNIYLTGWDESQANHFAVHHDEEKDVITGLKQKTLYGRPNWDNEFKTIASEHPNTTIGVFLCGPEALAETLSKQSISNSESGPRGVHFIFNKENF
Assay: confocal immunofluorescence of NOX2 and p47phox association (NOX2 oxidase assembly) in HKx31-infected mouse macrophages

B1: p47phox regulatory subunit of NOX2 oxidase (other, mouse, UniProt Q09014 1-390, looked up)
chain: MGDTFIRHIALLGFEKRFIPSQHYVYMFLVKWQDLSEKVVYRKFTEIYEFHKMLKEMFPIEAGEIHTENRVIPHLPAPRWFDGQRAAESRQGTLTEYFNGLMGLPVKISRCPHLLDFFKVRPDDLKLPTDSQAKKPETYLVPKDGKNNVADITGPIILQTYRAIADYEKSSGTEMTVATGDVVDVVEKSESGWWFCQMKTKRGWVPASYLEPLDSPDEAEDPDPNYAGEPYVTIKAYAAVEEDEMSLSEGEAIEVIHKLLDGWWVVRKGDITGYFPSMYLQKAGEEITQAQRQIRGRGAPPRRSTIRNAQSIHQRSRKRLSQDTYRRNSVRFLQQRRRPGRPGPLSTDGTKDNPSTPRVKPQPAVPPRPSSDLILHRCTESTKRKLTSAV
notes: whole, on cells; Cytosolic subunit, endogenous in the cells
B1: binds.
